Measured values: IntAct's records for PubMed 18562279

Molecular target: akt1_human AKT1 (UniProt P31749)
Sequence (P31749 whole entry): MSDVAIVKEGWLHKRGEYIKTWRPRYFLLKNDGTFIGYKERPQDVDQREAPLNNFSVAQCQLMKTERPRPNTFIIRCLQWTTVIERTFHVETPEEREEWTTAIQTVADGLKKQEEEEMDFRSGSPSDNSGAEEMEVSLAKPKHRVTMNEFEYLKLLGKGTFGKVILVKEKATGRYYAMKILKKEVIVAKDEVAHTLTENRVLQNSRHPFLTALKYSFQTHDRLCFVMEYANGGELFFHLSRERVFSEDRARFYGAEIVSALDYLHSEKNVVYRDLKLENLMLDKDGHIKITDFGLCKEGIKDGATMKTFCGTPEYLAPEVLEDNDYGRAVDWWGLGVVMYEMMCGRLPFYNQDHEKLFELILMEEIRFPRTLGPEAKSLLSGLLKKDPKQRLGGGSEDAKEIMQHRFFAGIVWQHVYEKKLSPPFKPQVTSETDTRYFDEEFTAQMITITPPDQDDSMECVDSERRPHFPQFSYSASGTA

Substance	effect of a mutation on the interaction
THO complex subunit 4 (Homo sapiens) (from UniProt Q86V81) T219A	disrupting interaction
THO complex subunit 4 (Homo sapiens) (from UniProt Q86V81) S34A	disrupting interaction
